Test results as given in patent US20230357447A1 (JANUX THERAPEUTICS, published 2023).
Ends that are not written are not given here.

B1: Peptide-39 (peptide)
peptide: MDWCPRDLWHLCFS
modifications: cysteine pairing not given here; also: biotinylated, site not given here
notes: Synthetic biotinylated peptide loaded on streptavidin biosensors
B2: Peptide-8 (peptide)
peptide: CFAYLWIDSWIRVC
modifications: cysteine pairing not given here; also: biotinylated when captured on plate, site not given here
notes: biotinylated when captured on the plate
B3: Peptide-3 (peptide)
peptide: SPCGLFQWMEICEF
modifications: cysteine pairing not given here; also: biotinylated, site not given here
notes: as for B2
B4: Peptide-4 (peptide)
peptide: SFCGLFLDLWICEF
modifications: cysteine pairing not given here; also: biotinylated, site not given here
notes: as for B2
B5: Peptide-1 (peptide)
peptide: YWYCSPSIVRCVLV
modifications: cysteine pairing not given here; also: biotinylated, site not given here
notes: as for B2
B6: Peptide-5 (peptide)
peptide: DNCYVIWGFEWQCR
modifications: cysteine pairing not given here; also: biotinylated when captured on plate, site not given here
notes: as for B2
B7: Peptide-2 (peptide)
peptide: LICKSGSILILCAQ
modifications: cysteine pairing not given here; also: biotinylated, site not given here
notes: as for B2
B8: Peptide-7 (peptide)
peptide: FCTPREWSFLNFVC
modifications: cysteine pairing not given here; also: biotinylated when captured on plate, site not given here
notes: as for B2
B9: Peptide-6 (peptide)
peptide: VNCMRVHRTLTWCV
modifications: cysteine pairing not given here; also: biotinylated when captured on plate, site not given here
notes: as for B2
B10: Peptide-18 (peptide)
peptide: CFYAEYYDQVYSFC
modifications: cysteine pairing not given here; also: biotinylated, site not given here
notes: as for B2
B11: Peptide-17 (peptide)
peptide: GCFTWSQRTFPFTC
modifications: cysteine pairing not given here; also: biotinylated, site not given here
notes: as for B2
B12: Peptide-15 (peptide)
peptide: NCQPWYWNMFAFGC
modifications: cysteine pairing not given here; also: biotinylated, site not given here
notes: as for B2
B13: Peptide-16 (peptide)
peptide: NCQPWYWNMIAFGC
modifications: cysteine pairing not given here; also: biotinylated, site not given here
notes: as for B2
B14: Peptide-14 (peptide)
peptide: IDCIMVHMVKPWCF
modifications: cysteine pairing not given here; also: biotinylated, site not given here
notes: as for B2
B15: Peptide-10 (peptide)
peptide: GQHCATSMWRYCMF
modifications: cysteine pairing not given here; also: biotinylated, site not given here
notes: as for B2
B16: Peptide-11 (peptide)
peptide: WICDKSGSIMLCRA
modifications: cysteine pairing not given here; also: biotinylated, site not given here
notes: as for B2
B17: Peptide-13 (peptide)
peptide: DNCHYIWGFEWQCG
modifications: cysteine pairing not given here; also: biotinylated, site not given here
notes: as for B2
B18: Peptide-47 (peptide)
peptide: MDWCPRSLWHECFA
modifications: cysteine pairing not given here; also: biotinylated, site not given here
notes: as for B1
B19: Peptide-41 (peptide)
peptide: MDWCPRDLWVHCFA
modifications: cysteine pairing not given here; also: biotinylated, site not given here
notes: as for B1
B20: Peptide-48 (peptide)
peptide: MDWCPRYLWHVCFA
modifications: cysteine pairing not given here; also: biotinylated, site not given here
notes: as for B1
B21: Peptide-45 (peptide)
peptide: MDWCPRFMWDECFN
modifications: cysteine pairing not given here; also: biotinylated, site not given here
notes: as for B1
B22: Peptide-46 (peptide)
peptide: MDWCPRHMWNYCFA
modifications: cysteine pairing not given here; also: biotinylated, site not given here
notes: as for B1
B23: Peptide-40 (peptide)
peptide: MDWCPRDLWSECFF
modifications: cysteine pairing not given here; also: biotinylated, site not given here
notes: as for B1
B24: Peptide-42 (peptide)
peptide: MDWCPRDMWDECFA
modifications: cysteine pairing not given here; also: biotinylated, site not given here
notes: as for B1
B25: Peptide-43 (peptide)
peptide: MDWCPRDMWSECFA
modifications: cysteine pairing not given here; also: biotinylated, site not given here
notes: as for B1
B26: Peptide-44 (peptide)
peptide: MDWCPRDMWSVCFS
modifications: cysteine pairing not given here; also: biotinylated, site not given here
notes: as for B1
B27: Phage-95 (peptide)
peptide: MDWCPRFLWSECFN
B28: Phage-100 (peptide)
peptide: MDWCPRYLWTECFN
B29: Phage-56 (peptide)
peptide: MHWCPMDQWSNCFN
B30: Phage-52 (peptide)
peptide: MDWCPINLWDECFS

Biological target: T1, Ab-12, anti-PD-L1xCD28 non-masked antibody in Vh format
T1 construct: also called PDL1xCD28 non-masked (Vh)
Test: competition ELISA: peptide titrated against 5 nM Ab-12; binding of Ab-12 to captured biotinylated CD28 antigen is read

Binder | IC50
B1 | 480 nM

Biological target: T2, anti-CD28 scFv (SEQ ID NO: 9)
T2 construct: also called Anti-CD28 scFv (VH-linker 1-VL)
Test: competition ELISA: peptide titrated against 2 nM anti-CD28 scFv; binding of the scFv to captured biotinylated CD28 antigen is read; table prints 'IC50 nM' but the axis is Log [Peptide, uM]; no fall of the signal

Binder | IC50
B2 | > 100 nM
B3 | > 100 nM
B4 | > 100 nM
B5 | > 100 nM
B6 | > 100 nM
B7 | > 100 nM
B8 | > 100 nM
B9 | > 100 nM

Biological target: T1, Ab-12, anti-PD-L1xCD28 non-masked …
Test: competition ELISA: peptide titrated against 5 nM Ab-12; binding of Ab-12 to captured biotinylated CD28 antigen is read; table prints 'IC50 nM' but the axis is Log [Peptide, uM]; no fall of the signal

Binder | IC50
B2 | > 100 nM
B10 | > 100 nM
B11 | > 100 nM
B12 | > 100 nM
B13 | > 100 nM
B14 | > 100 nM
B15 | > 100 nM
B16 | > 100 nM
B17 | > 100 nM

Biological target: T1, Ab-12, anti-PD-L1xCD28 non-masked …
Test: competition ELISA: peptide titrated against 5 nM Ab-12; binding of Ab-12 to captured biotinylated CD28 antigen is read
Remark: another data set of the same source

Binder | IC50
B18 | 450 nM
B19 | 150 nM
B20 | 790 nM
B21 | 370 nM
B22 | 240 nM
B23 | 250 nM
B24 | 440 nM
B25 | 240 nM
B26 | 940 nM

Biological target: T3, Anti-CD28 scFv (VH-linker 1-VL) (biotinylated (site not stated))
T3 construct: biotinylated and captured on neutravidin coated plates in the phage ELISA
Test: phage ELISA, scFv wells pre-incubated with soluble CD28 (competitor); background signal 0.062

Binder | Phage binding ELISA CD28 scFv signal in presence of CD28
B27 | 0.227
B28 | 0.549
B29 | 0.084
B30 | 0.096

Biological target: T3, Anti-CD28 scFv (VH-linker 1-VL)
Test: phage ELISA, captured biotinylated scFv; background signal 0.062

Binder | Phage binding ELISA CD28 scFv signal
B27 | 2.57
B28 | 2.56
B29 | 0.515
B30 | 1.5
